From the RNAGym collection of RNA variant scans (doi:10.7554/elife.90254) come the findings set out here.

The chains are these.
B1: LINE1-mini (parent)
chain: GGCAGAGCUCAACACAGCGUGGCAAAGUGGCUGUGGCUAGACUGCC

In the data set the parent is B1. Put plainly: self-cleavage, relative activity (ratio to wild type); higher = more cleavage; in vitro, sequencing; the parent is a self-cleaving ribozyme.
U9G G35U: the self-cleavage amounted to 0.07.
Then U9G A25G, with 0.06; and U9G A25C, with 0.13.
Then U9G A25U, with 0.14.
Then U9G G19C, with 0.06; and U9G G19A, with 0.18; and U9G G19U, with 0.1.
Consider U9C A41G, for which the self-cleavage came out at 0.05.
The figure for U9C A41C is 0.04; for U9C A41U it is 0.06.
Then U9C A24G, with 0.07.
The figure for U9C A24U is 0.05.
With U9C A24C, the self-cleavage is 0.02.
The figure for C10A U32A is 0.02; for C10A U32G it is 0.03; for C10A U32C it is 0.03.
In the case of U9G U20C, the self-cleavage stood at 0.05.
The figure for U9G U20A is 0.07; for U9G U20G it is 0.06.
The figure for C10A A39C is 0.05; for C10A A39G it is 0.04.
Then C10A A39U, with 0.24; and C10A C42G, with 0.16; and C10A C42U, with 0.03.
In the case of C10A C42A, the self-cleavage was found to be 0.02.
Then U9C G33C, with 0.03.
Turning to U9C G33U, the self-cleavage amounted to 0.03.
In the case of U9C G33A, the self-cleavage turned out to be 0.06.
For the variant U9C G40U, the self-cleavage came to 0.03.
For the variant U9C G40A, the self-cleavage was 0.03.
In the case of U9C G40C, the self-cleavage was determined as 0.03.
As for C10A G19U, the self-cleavage was determined as 0.06.
Then C10A G19C, with 0.05.
C10A G19A: the self-cleavage amounted to 0.07.
The figure for U9G A24U is 0.18.
The figure for U9G A24G is 0.14; for U9G A24C it is 0.07.
Turning to C10A G21A, the self-cleavage stood at 0.08.
The figure for C10A G21U is 0.04; for C10A G21C it is 0.04; for U9G C10A it is 0.03.
As to U9G C10G, the self-cleavage is 0.02.
Then U9G C10U, with 0.05; and C10A G35U, with 0.03.
Then C10A G35A, with 0.04; and C10A G35C, with 0.02; and U9C G17C, with 0.04.
The figure for U9C G17A is 0.02; for U9C G17U it is 0.04; for C10A it is 0.07.
As to C10G, the self-cleavage was 0.11.
Consider U9G C13A, for which the self-cleavage worked out at 0.19.
As to U9G C13G, the self-cleavage turned out to be 0.08.
Then U9G C13U, with 0.11; and U9C C45G, with 0.02; and U9C C45A, with 0.05.
With U9C C45U, the self-cleavage came out at 0.03.
For U9C A39C, the self-cleavage was determined as 0.02.
Then U9C A39G, with 0.02.
Consider U9C A39U, for which the self-cleavage amounted to 0.05.
Turning to U9C G44C, the self-cleavage was determined as 0.02.
Turning to U9C G44U, the self-cleavage stood at 0.02.
The figure for U9C G44A is 0.04.
For C10A G40C, the self-cleavage is 0.02.
For C10A G40A, the self-cleavage came to 0.02.
Consider C10A G40U, for which the self-cleavage was found to be 0.03.
In the case of C10A G30U, the self-cleavage stood at 0.09.
The figure for C10A G30A is 0.1; for C10A G30C it is 0.08; for U9G A11C it is 0.02.
The figure for U9G A11G is 0.02; for U9G A11U it is 0.03; for U9C C46U it is 0.03.
Then U9C C46G, with 0.03; and U9C C46A, with 0.03.
For U9G G29C, the self-cleavage amounted to 0.05.
Consider U9G G29U, for which the self-cleavage was found to be 0.07.
Then U9G G29A, with 0.08; and C10A G36A, with 0.02.
As for C10A G36U, the self-cleavage is 0.04.
C10A G36C: the self-cleavage is 0.02.
In the case of U9C U28A, the self-cleavage turned out to be 0.03.
For the variant U9C U28C, the self-cleavage amounted to 0.05.
Take U9C U28G: the self-cleavage came out at 0.04.
As for U9G G33C, the self-cleavage was 0.05.
As to U9G G33U, the self-cleavage was found to be 0.08.
Consider U9G G33A, for which the self-cleavage is 0.06.
As to U9G G22A, the self-cleavage amounted to 0.21.
As to U9G G22C, the self-cleavage was 0.1.
In the case of U9G G22U, the self-cleavage was 0.19.
With U9C A12G, the self-cleavage is 0.04.
The figure for U9C A12U is 0.03; for U9C A12C it is 0.04; for U9C C31U it is 0.03.
The figure for U9C C31G is 0.02; for U9C C31A it is 0.02.
Turning to C10A A12G, the self-cleavage is 0.02.
In the case of C10A A12U, the self-cleavage came to 0.04.
The figure for C10A A12C is 0.04.
Consider U9G C31G, for which the self-cleavage stood at 0.04.
As to U9G C31A, the self-cleavage came to 0.04.
The figure for U9G C31U is 0.03; for U9G G17U it is 0.08.
Then U9G G17A, with 0.12.
Then U9G G17C, with 0.1.
Take U9C G30C: the self-cleavage worked out at 0.04.
Consider U9C G30U, for which the self-cleavage worked out at 0.02.
Then U9C G30A, with 0.03; and U9G C18U, with 0.09.
The figure for U9G C18A is 0.07; for U9G C18G it is 0.04; for U9G A14G it is 0.12.
The figure for U9G A14U is 0.06; for U9G A14C it is 0.2.
For U9G C42U, the self-cleavage is 0.05.
Consider U9G C42A, for which the self-cleavage worked out at 0.08.
The figure for U9G C42G is 0.06.
Then U9C G29U, with 0.03.
Then U9C G29A, with 0.02; and U9C G29C, with 0.02.
With C10A C46A, the self-cleavage was found to be 0.05.
The figure for C10A C46U is 0.07; for C10A C46G it is 0.04.
The figure for U9C G22U is 0.02; for U9C G22A it is 0.04; for U9C G22C it is 0.03.
Then U9C G36U, with 0.03; and U9C G36C, with 0.03; and U9C G36A, with 0.09.
Consider U9G G44A, for which the self-cleavage came out at 0.12.
The figure for U9G G44U is 0.08; for U9G G44C it is 0.03.
Then U9G C46G, with 0.05.
On to U9G C46U, for which the self-cleavage came out at 0.11.
As for U9G C46A, the self-cleavage was 0.1.
In the case of C10A U43C, the self-cleavage turned out to be 0.03.
The figure for C10A U43G is 0; for C10A U43A it is 0.01.
Turning to U9C C37G, the self-cleavage was 0.01.
In the case of U9C C37A, the self-cleavage worked out at 0.02.
Turning to U9C C37U, the self-cleavage amounted to 0.04.
The figure for C10A C18G is 0.04.
The figure for C10A C18A is 0.07.
As to C10A C18U, the self-cleavage was found to be 0.07.
The figure for C10A G27A is 0.06; for C10A G27C it is 0.04; for C10A G27U it is 0.06.
Then C10A C45A, with 0.04; and C10A C45U, with 0.07; and C10A C45G, with 0.03.
Then U9G C15A, with 0.1.
With U9G C15U, the self-cleavage was determined as 0.17.
In the case of U9G C15G, the self-cleavage is 0.43.
With C10A G17A, the self-cleavage is 0.04.
Then C10A G17C, with 0.1; and C10A G17U, with 0.05; and U9G A39C, with 0.05.
On to U9G A39G, for which the self-cleavage came out at 0.08.
In the case of U9G C45A, the self-cleavage was determined as 0.11.
Then U9G C45U, with 0.16.
Then U9G C45G, with 0.21; and C10A A25U, with 0.1.
The figure for C10A A25C is 0.05; for C10A A25G it is 0.04.
In the case of U9G G27C, the self-cleavage came out at 0.08.
The figure for U9G G27A is 0.07.
As for U9G G27U, the self-cleavage amounted to 0.06.
